No end group written: not given here.
Key:
[1] = target: T1, Aβ1-42 fibers (UniProt P05067 672-713); experiment: binding affinity ELISA on plates coated with amyloid, alkaline phosphatase anti-mouse IgG detection
T1 construct: domain: Aβ1-42; Aggregated, fibrillar state of Aβ1-42 (incubated for days at 37 °C); number of peptide copies not defined; also called Amyloid 1-42 fibrils; fibrillar Aβ1-42
Procedure: (§1) In order to evaluate the specificity of mACI-01-Ab7 C2 to different stages of polymerized amyloid protein, monomeric and polymeric soluble amyloid, particularly, amyloid β (Aβ) protein, and fibrillic amyloid, an ELISA coated with these different stages of polymeric beta-amyloid was performed. Monomers were prepared according to a modified method published by⁷, polymeric soluble amyloid, particularly, amyloid β (Aβ) according to⁸, whereas fibers were performed by incubation of amyloid (Bachem, Switzerland) with a final concentration of 1 μg/μl in Tris/HC1 pH 7.4 at 37° C. for 5 days followed by a centrifugation step (10,000 rpm for 5 minutes). Then amyloid polymers were coated on an ELISA plates with a final concentration of […] and binding affinity ELISA by using an anti-mouse IgG monoclonal antibody (Jackson ImmunoResearch Laboratories, Inc.) labelled with alkaline phosphate was performed.

[2] = target: T2, Aβ1-42 oligomers (UniProt P05067 672-713); experiment: as above
T2 construct: domain: Aβ1-42; Soluble oligomeric preparation (SDS-induced); number of copies not defined; also called amyloid oligomers; polymeric soluble amyloid β (Aβ) protein
T2 sequence (P05067 672-713 limits assumed): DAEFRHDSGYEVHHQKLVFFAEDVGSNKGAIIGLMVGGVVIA
Procedure: as §1

[3] = target: T3, Aβ1-42 monomers (UniProt P05067 672-713); experiment: as above
T3 construct: domain: Aβ1-42; Unlabelled monomeric preparation (HFIP film, DMSO, PBS); also called Amyloid monomers; Aβ1-42 monomeric peptide
T3 sequence (P05067 672-713 limits assumed): as above
Procedure: as §1

[4] = target: T4, peptide 12-20 with alanine at aa 17 (A17) (also: biotinylated (position not given here)); experiment: ELISA on biotinylated peptides on streptavidin plates
T4 construct: Second library; the entry already carries the alanine
T4 peptide: VHHQKAVFF
Procedure: (§2) Epitope mapping of the monoclonal antibody mACI-01-Ab7 C2 was performed by ELISA using three different peptide libraries. One library comprises a total of 33 biotinylated peptides covering the complete amino acid (aa) sequence of Aβ1-42 (produced by Mimotopes and purchased from ANAWA Trading SA), the second library contains biotinylated peptides using peptide 12 (aa12-20 of Aβ) from the first peptide library and substituting each amino acid in the sequence by an alanine (see table 41 below), and the third library contains biotinylated peptides 13, 14, or 15 (aa 13-21, 14-22 or 15-23 of Aβ) and substituting in each case the last amino acids to an alanine or to a glycine for aa 21 which is already an alanine (see table 5 below). A biotinylated complete Aβ1-42 peptide was used as positive control (Bachem). Epitope mapping was done according to the manufacturer's (Mimotopes) instructions. Briefly, Streptavidin coated plates (NUNC) were blocked with 0.1% BSA in PBS overnight at 4° C. After washing with PBS-0.05% Tween 20, plates were coated for 1 hour at RT with the different peptides from the library, diluted in 0.1% BSA, 0.1% Sodium Azide in PBS to a final concentration of 10 μM. After washing, plates were incubated for 1 hour at RT with the mACI-01-Ab7 C2 antibody or an isotype control mouse IgG2b antibody, diluted to 10 μg/ml in 2% BSA, 0.1% Sodium Azide in PBS. Plates were washed again and incubated with alkaline phosphatase conjugated goat anti mouse IgG for 1 h at RT. After final washing, plates were incubated with phosphatase substrate (pNPP) and read at 405 nm using an ELISA plate reader.
(§3) It was shown that the monoclonal antibody mACI-01-Ab7 C2 bound specifically to peptides 12, 13, 14 and 15 of the first peptide library. […] A second library with alanine substitutions was used to determine the critical aa for binding to peptide 12-20 ([…]) (SEQ ID NO: 29).

[5] = target: T5, peptide 12-20 with alanine at aa 20 (A20) (also: biotinylated, position not given here); experiment: as above
T5 construct: Second library; the entry already carries the alanine
T5 peptide: VHHQKLVFA
Procedure: as §2, §3

[6] = target: T6, peptide 12-20 with alanine at aa 19 (A19) (also: biotinylated, position not given here); experiment: as above
T6 construct: Second library; the entry already carries the alanine
T6 peptide: VHHQKLVAF
Procedure: as §2, §3

[7] = target: T7, peptide 12-20 with alanine at aa 16 (A16) (also: biotinylated (position not given here)); experiment: as above
T7 construct: Second library; the entry already carries the alanine
T7 peptide: VHHQALVFF
Procedure: as §2, §3

T1 sequence (P05067 672-713 limits assumed): as above

IC50 [1]: 5.27 nM
IC50 [2]: 2.53 nM
IC50 [3]: 8.3 nM
B1: mACI-01-Ab7 C2 (antibody, mouse IgG2b, kappa, V domains shown)
VH: EVQLVESGGGLVQPGGSLKLSCAASGFTFSSYGMSWVRQTPDKRLELVASINSNGGSTYYPDSVKGRFTISRDNAKNTLYLQMSSLKSEDTAMYYCASGDYWGQGSTLTVSS
VL: DVVMTQTPLSLPVSLGDQASISCRSSQSLVYSNGDTYLHWYLQKPGQSPKLLIYKVSNRFSGVPDRFSGSGSGTDFTLKISRVEAEDLGVYFCSQSTHVPWTFGGGTKLEIKR
notes: also called mC2; Mouse C2
binding result [4]: no binding (tested: antibody at 10 µg/ml)
binding result [5]: no binding (tested: antibody at 10 µg/ml)
binding result [6]: no binding (tested: antibody at 10 µg/ml)
binding result [7]: no binding (tested: antibody at 10 µg/ml)

Reference: US20120244165A1 (published 2012)
